Experimental data taken from patent US20240425609A1 (Regeneron, published 2024).

T1: mouse CD20 (mouse, UniProt P19437 1-291)
T1 construct: whole, on cells; also called mCD20; murine CD20
T1 sequence (looked up): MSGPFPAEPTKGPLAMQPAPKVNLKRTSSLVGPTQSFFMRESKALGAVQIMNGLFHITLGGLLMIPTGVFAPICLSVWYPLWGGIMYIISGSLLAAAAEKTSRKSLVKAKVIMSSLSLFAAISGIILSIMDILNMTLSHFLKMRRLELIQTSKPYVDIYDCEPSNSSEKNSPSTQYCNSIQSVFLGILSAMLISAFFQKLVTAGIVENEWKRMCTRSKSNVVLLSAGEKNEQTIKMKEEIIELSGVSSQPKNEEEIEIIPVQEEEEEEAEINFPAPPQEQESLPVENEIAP

T2: mouse PD1 (mouse, UniProt Q02242 25-288)
T2 construct: whole, on cells; also called mPD1
T2 sequence (looked up): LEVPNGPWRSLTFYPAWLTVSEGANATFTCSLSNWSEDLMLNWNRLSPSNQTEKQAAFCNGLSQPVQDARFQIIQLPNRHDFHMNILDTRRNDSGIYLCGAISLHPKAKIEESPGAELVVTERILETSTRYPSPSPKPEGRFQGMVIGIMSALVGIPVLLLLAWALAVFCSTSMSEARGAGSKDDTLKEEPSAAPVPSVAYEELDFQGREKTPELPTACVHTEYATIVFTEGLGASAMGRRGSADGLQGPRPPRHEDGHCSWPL


Assays:
mouse CD20 = target: T1, mouse CD20; experiment: flow cytometry on MC38/mCD20 cells
Method: (§1) Cells (HEK 293, MC38 over-expressing mCD20 or Jurkat over-expressing mPD1) were resuspended in FACS wash (PBS with 1% FBS) at 1×10⁸ cells/mL. The staining was performed in 1×10⁵ cells per well. The antibodies were diluted with a ratio of 1:5 from a starting concentration of 1.3×10⁻⁷ M. The diluted antibodies were then added into the wells containing cells. Cells were stained for 30 min at 2-8° C. and washed twice with FACS wash buffer. APC-conjugated goat anti-human IgG (Jackson Immuno Research, 109-607-003, 1:400) was added to stain the cells for 30 min at 2-8° C. Following washing, cells were fixed in 2% paraformaldehyde for 30 min at 2-8° C. After two washes, stained cells were analyzed using BD LSRFortessa™ FACS instrument. The results were analyzed by FlowJo. FSC/SSC gates were used to select mononuclear cells.

mouse PD1 [1] = target: T2, mouse PD1; experiment: flow cytometry on Jurkat/mPD1 cells
Method: as §1

mouse PD1 [2] = target: T2, mouse PD1; experiment: cell-based or functional assay

Row | Max MFI (mouse CD20) [MFI] | EC50 (mouse PD1 [1]) [nM] | Max MFI (mouse PD1 [1]) [MFI] | Max % inhibition, AP1-luciferase bioassay, 2.5 nM CD3 bsAb (mouse PD1 [2]) [%] | EC50 (mouse CD20) [nM] | IC50 (M), AP1-luciferase bioassay, 2.5 nM CD3 bsAb (mouse PD1 [2]) [M] | Binder
1 | 20300 | 22.4 | 16700 | 11 | – | – | 1 + 2 m20_mPL_1 (bispecific antibody, human IgG1, kappa) heavy: QVQLQQPGAELVRPGTSVKLSCKASGYTFTSYWMHWIKQRPGQGLEWIGVIDPSDNYTKYNQKFKGKATLTVDTSSSTAYMQLSSLTSEDSAVYFCAREGYYGSSPWFAYWGQGTLVTVSSASTKGPSVFPLAPSSKSTSGGTAALGCLVKDYFPEPVTVSWNSGALTSGVHTFPAVLQSSGLYSLSSVVTVPSSSLGTQTYICNVNHKPSNTKVDKKVEPKSCDKTHTCPPCPAPEAEGAPSVFLFPPKPKDTLMISRTPEVTCVVVDVSHEDPEVKFNWYVDGVEVHNAKTKPREEQYNSTYRVVSVLTVLHQDWLNGKEYKCKVSNKALPSSIEKTISKAKGQPREPQVCTLPPSRDELTKNQVSLSCAVKGFYPSDIAVEWESNGQPENNYKTTPPVLDSDGSFFLVSKLTVDKSRWQQGNVFSCSVMHEALHNRFTQKSLSLSPGK light: QIVMSQSPAILSASPGEKVTMTCRARSSVSYIHWYQQKPGSSPKPWIYATSNLASGVPGRFSGSGSGTSYSLTITRVEAEDAATYYCQQWSSKPPTFGGGTKLEIKRTVAAPSVFIFPPSDEQLKSGTASVVCLLNNFYPREAKVQWKVDNALQSGNSQESVTEQDSKDSTYSLSSTLTLSKADYEKHKVYACEVTHQGLSSPVTKSFNRGEC not shown
2 | 35300 | 6.31 | 6980 | 33 | 8.42 | 6.5e-11 | 2 + 2 m20_mPL_3 (bispecific antibody, human IgG1, kappa) heavy: QVQLQQPGAELVRPGTSVKLSCKASGYTFTSYWMHWIKQRPGQGLEWIGVIDPSDNYTKYNQKFKGKATLTVDTSSSTAYMQLSSLTSEDSAVYFCAREGYYGSSPWFAYWGQGTLVTVSSASTKGPSVFPLAPSSKSTSGGTAALGCLVKDYFPEPVTVSWNSGALTSGVHTFPAVLQSSGLYSLSSVVTVPSSSLGTQTYICNVNHKPSNTKVDKKVEPKSCDKTHTCPPCPAPEAEGAPSVFLFPPKPKDTLMISRTPEVTCVVVDVSHEDPEVKFNWYVDGVEVHNAKTKPREEQYNSTYRVVSVLTVLHQDWLNGKEYKCKVSNKALPSSIEKTISKAKGQPREPQVCTLPPSRDELTKNQVSLSCAVKGFYPSDIAVEWESNGQPENNYKTTPPVLDSDGSFFLVSKLTVDKSRWQQGNVFSCSVMHEALHNRFTQKSLSLSPGKGGGGSGGGGSGGGGSQVQLQQPGAELVRPGTSVKLSCKASGYTFTSYWMHWIKQRPGQGLEWIGVIDPSDNYTKYNQKFKGKATLTVDTSSSTAYMQLSSLTSEDSAVYFCAREGYYGSSPWFAYWGQGTLVTVSSASTKGPSVFPLAPSSKSTSGGTAALGCLVKDYFPEPVTVSWNSGALTSGVHTFPAVLQSSGLYSLSSVVTVPSSSLGTQTYICNVNHKPSNTKVDKKVEPKSCD not shown light: QIVMSQSPAILSASPGEKVTMTCRARSSVSYIHWYQQKPGSSPKPWIYATSNLASGVPGRFSGSGSGTSYSLTITRVEAEDAATYYCQQWSSKPPTFGGGTKLEIKRTVAAPSVFIFPPSDEQLKSGTASVVCLLNNFYPREAKVQWKVDNALQSGNSQESVTEQDSKDSTYSLSSTLTLSKADYEKHKVYACEVTHQGLSSPVTKSFNRGEC
